{
  "source": "paper PMC5027563",
  "about": "“Functional Recovery of AQP2 Recessive Mutations Through Hetero-Oligomerization with Wild-Type Counterpart” (Scientific Reports, 2016)",
  "key": {"[1]": {"molecular_target": "T1, wild-type Aquaporin-2 (untagged) (human, UniProt P41181 1-271)", "T1 sequence (looked up)": "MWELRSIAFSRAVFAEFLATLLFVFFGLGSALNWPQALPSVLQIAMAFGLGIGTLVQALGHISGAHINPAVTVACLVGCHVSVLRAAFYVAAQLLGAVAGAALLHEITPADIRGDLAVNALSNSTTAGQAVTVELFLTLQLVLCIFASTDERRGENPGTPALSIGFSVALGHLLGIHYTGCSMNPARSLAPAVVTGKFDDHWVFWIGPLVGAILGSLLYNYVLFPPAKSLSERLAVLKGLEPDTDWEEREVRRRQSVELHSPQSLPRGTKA"}, "[2]": {"molecular_target": "T1, wild-type Aquaporin-2 (untagged)", "remark": "listed apart in the source"}, "[3]": {"molecular_target": "T1, wild-type Aquaporin-2 (untagged)", "assay": "cell-based or functional assay"}, "[4]": {"molecular_target": "T2, GFP-tagged Aquaporin-2 D150E (human, UniProt P41181 1-271, D150E)", "T2 construct": "Aquaporin-2 (AQP2), human, recessive NDI mutation D150E, GFP-tagged form; The methods describe only how pT7Ts-GFP-AQP2 (wild type) was made; also called GFP-tagged D150E; source: Xenopus laevis oocytes, cRNA injected; total membranes solubilised in 2% deoxycholate", "T2 sequence (looked up)": "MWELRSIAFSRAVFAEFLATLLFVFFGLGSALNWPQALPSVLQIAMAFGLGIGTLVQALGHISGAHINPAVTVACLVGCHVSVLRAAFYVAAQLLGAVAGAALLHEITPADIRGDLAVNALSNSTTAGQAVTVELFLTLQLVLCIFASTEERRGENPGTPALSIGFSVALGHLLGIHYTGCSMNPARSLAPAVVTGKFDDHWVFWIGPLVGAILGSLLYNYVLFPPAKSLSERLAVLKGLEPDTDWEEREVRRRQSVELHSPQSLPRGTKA", "assay": "co-IP; Xenopus oocytes co-injected with 0.5 ng mRNA of an untagged AQP2 variant and 1 ng (equimolar) of a GFP-tagged form, 24 h; total membranes solubilised in 2% deoxycholate in PBS, 100,000 x g supernatant; IP with goat anti-GFP and protein-G magnetic beads at room temperature; blot with anti-AQP2 of the untagged 29 kDa band; densitometry in % of wt-AQP2, 4 assays", "conditions": "partners not purified"}, "[5]": {"molecular_target": "T3, GFP-tagged wild-type Aquaporin-2 (human, UniProt P41181 1-271)", "T3 construct": "Aquaporin-2 (AQP2), human, wild type, from pT7Ts-GFP-AQP2 (subcloned through the pAc-GFP vector); 58 kDa with GFP; also called GFP-wt-AQP2; GFP-tagged-WT; source: Xenopus laevis oocytes, cRNA injected; total membranes solubilised in 2% deoxycholate", "T3 sequence (looked up)": "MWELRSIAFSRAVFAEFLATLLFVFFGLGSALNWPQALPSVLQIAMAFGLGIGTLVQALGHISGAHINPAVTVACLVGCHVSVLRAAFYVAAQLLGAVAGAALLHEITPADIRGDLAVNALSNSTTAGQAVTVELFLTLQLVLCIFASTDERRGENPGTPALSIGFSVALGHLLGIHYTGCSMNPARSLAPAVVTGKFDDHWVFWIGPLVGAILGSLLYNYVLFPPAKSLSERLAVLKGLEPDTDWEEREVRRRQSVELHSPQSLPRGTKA", "assay": "co-IP; Xenopus oocytes co-injected with 0.5 ng mRNA of an untagged AQP2 variant and 1 ng (equimolar) of a GFP-tagged form, 24 h; total membranes solubilised in 2% deoxycholate in PBS, 100,000 x g supernatant; IP with goat anti-GFP and protein-G magnetic beads at room temperature; blot with anti-AQP2 of the untagged 29 kDa band; densitometry in % of wt-AQP2, 4 assays", "conditions": "partners not purified"}, "[6]": {"molecular_target": "T4, GFP-tagged Aquaporin-2 V24A (human, UniProt P41181 1-271, V24A)", "T4 construct": "Aquaporin-2 (AQP2), human, recessive NDI mutation V24A, GFP-tagged form; The methods describe only how pT7Ts-GFP-AQP2 (wild type) was made; also called GFP-tagged V24A; source: Xenopus laevis oocytes, cRNA injected; total membranes solubilised in 2% deoxycholate", "T4 sequence (looked up)": "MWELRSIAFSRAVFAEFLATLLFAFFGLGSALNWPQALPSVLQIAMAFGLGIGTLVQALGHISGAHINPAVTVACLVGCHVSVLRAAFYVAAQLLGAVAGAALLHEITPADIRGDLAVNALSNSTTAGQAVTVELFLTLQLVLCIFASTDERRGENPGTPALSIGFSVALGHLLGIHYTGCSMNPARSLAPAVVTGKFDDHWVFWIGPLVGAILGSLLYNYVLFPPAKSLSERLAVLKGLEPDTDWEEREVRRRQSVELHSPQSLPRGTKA", "assay": "co-IP; Xenopus oocytes co-injected with 0.5 ng mRNA of an untagged AQP2 variant and 1 ng (equimolar) of a GFP-tagged form, 24 h; total membranes solubilised in 2% deoxycholate in PBS, 100,000 x g supernatant; IP with goat anti-GFP and protein-G magnetic beads at room temperature; blot with anti-AQP2 of the untagged 29 kDa band; densitometry in % of wt-AQP2, 4 assays", "conditions": "partners not purified"}},
  "data": [
    {"binder": "Aquaporin-2 L22V (untagged) (natural protein) MWELRSIAFSRAVFAEFLATLVFVFFGLGSALNWPQALPSVLQIAMAFGLGIGTLVQALGHISGAHINPAVTVACLVGCHVSVLRAAFYVAAQLLGAVAGAALLHEITPADIRGDLAVNALSNSTTAGQAVTVELFLTLQLVLCIFASTDERRGENPGTPALSIGFSVALGHLLGIHYTGCSMNPARSLAPAVVTGKFDDHWVFWIGPLVGAILGSLLYNYVLFPPAKSLSERLAVLKGLEPDTDWEEREVRRRQSVELHSPQSLPRGTKA", "values": [
      {"measurement": "net increase (gain of function) in water permeability (Pf) of oocytes when expressed along wt-AQP2, in % of the wt-AQP2 activity (% of the wt-AQP2 activity)", "setting": "[1]", "value": 106}
    ]},
    {"binder": "Aquaporin-2 A147T (untagged) (natural protein) MWELRSIAFSRAVFAEFLATLLFVFFGLGSALNWPQALPSVLQIAMAFGLGIGTLVQALGHISGAHINPAVTVACLVGCHVSVLRAAFYVAAQLLGAVAGAALLHEITPADIRGDLAVNALSNSTTAGQAVTVELFLTLQLVLCIFTSTDERRGENPGTPALSIGFSVALGHLLGIHYTGCSMNPARSLAPAVVTGKFDDHWVFWIGPLVGAILGSLLYNYVLFPPAKSLSERLAVLKGLEPDTDWEEREVRRRQSVELHSPQSLPRGTKA", "values": [
      {"measurement": "net increase (gain of function) in water permeability (Pf) of oocytes when expressed along wt-AQP2, in % of the wt-AQP2 activity (% of the wt-AQP2 activity)", "setting": "[1]", "value": 45}
    ]},
    {"binder": "Aquaporin-2 T126M (untagged) (natural protein) MWELRSIAFSRAVFAEFLATLLFVFFGLGSALNWPQALPSVLQIAMAFGLGIGTLVQALGHISGAHINPAVTVACLVGCHVSVLRAAFYVAAQLLGAVAGAALLHEITPADIRGDLAVNALSNSTMAGQAVTVELFLTLQLVLCIFASTDERRGENPGTPALSIGFSVALGHLLGIHYTGCSMNPARSLAPAVVTGKFDDHWVFWIGPLVGAILGSLLYNYVLFPPAKSLSERLAVLKGLEPDTDWEEREVRRRQSVELHSPQSLPRGTKA", "values": [
      {"measurement": "net increase (gain of function) in water permeability (Pf) of oocytes when expressed along wt-AQP2, in % of the wt-AQP2 activity (% of the wt-AQP2 activity)", "setting": "[1]", "value": 42}
    ]},
    {"binder": "Aquaporin-2 R254Q (untagged) (natural protein) MWELRSIAFSRAVFAEFLATLLFVFFGLGSALNWPQALPSVLQIAMAFGLGIGTLVQALGHISGAHINPAVTVACLVGCHVSVLRAAFYVAAQLLGAVAGAALLHEITPADIRGDLAVNALSNSTTAGQAVTVELFLTLQLVLCIFASTDERRGENPGTPALSIGFSVALGHLLGIHYTGCSMNPARSLAPAVVTGKFDDHWVFWIGPLVGAILGSLLYNYVLFPPAKSLSERLAVLKGLEPDTDWEEREVRRQQSVELHSPQSLPRGTKA", "values": [
      {"measurement": "water permeability (Pf) of oocytes injected with 1 ng mRNA mixtures of wt/mut ratios 4/0 to 0/4, in % of pure wt-AQP2; the printed value is of the 2/2 ratio; dominant negative effect (% of pure wt-AQP2)", "setting": "[2]", "value": 14}
    ]},
    {"binder": "Aquaporin-2 R187C (untagged) (natural protein, human, UniProt P41181 1-271, looked up) MWELRSIAFSRAVFAEFLATLLFVFFGLGSALNWPQALPSVLQIAMAFGLGIGTLVQALGHISGAHINPAVTVACLVGCHVSVLRAAFYVAAQLLGAVAGAALLHEITPADIRGDLAVNALSNSTTAGQAVTVELFLTLQLVLCIFASTDERRGENPGTPALSIGFSVALGHLLGIHYTGCSMNPACSLAPAVVTGKFDDHWVFWIGPLVGAILGSLLYNYVLFPPAKSLSERLAVLKGLEPDTDWEEREVRRRQSVELHSPQSLPRGTKA", "values": [
      {"measurement": "gain of function in water permeability (Pf) of oocytes on coexpression with wt-AQP2 (specific activity with wt-AQP2 minus without), in % of wt-AQP2 activity; not functionally recovered", "setting": "[3]", "value": "0.4 % of wt-AQP2 activity"}
    ]},
    {"binder": "Aquaporin-2 D150E (untagged) (natural protein, human, UniProt P41181 1-271, looked up, Aquaporin-2 (AQP2), human, recessive NDI mutation D150E from reported clinical cases, made by site-directed mutagenesis in pT7Ts; also called rec-AQP2; source: Xenopus laevis oocytes, cRNA injected; total membranes solubilised in 2% deoxycholate) MWELRSIAFSRAVFAEFLATLLFVFFGLGSALNWPQALPSVLQIAMAFGLGIGTLVQALGHISGAHINPAVTVACLVGCHVSVLRAAFYVAAQLLGAVAGAALLHEITPADIRGDLAVNALSNSTTAGQAVTVELFLTLQLVLCIFASTEERRGENPGTPALSIGFSVALGHLLGIHYTGCSMNPARSLAPAVVTGKFDDHWVFWIGPLVGAILGSLLYNYVLFPPAKSLSERLAVLKGLEPDTDWEEREVRRRQSVELHSPQSLPRGTKA", "values": [
      {"measurement": "co-precipitated untagged band, densitometry in % of wt-AQP2 (rec/rec homomers)", "setting": "[4]", "value": "30 % of wt-AQP2"},
      {"measurement": "co-precipitated untagged band, densitometry in % of wt-AQP2 (wt/rec heteromers)", "setting": "[5]", "value": "86 % of wt-AQP2"},
      {"measurement": "gain of function in water permeability (Pf) of oocytes on coexpression with wt-AQP2 (specific activity with wt-AQP2 minus without), in % of wt-AQP2 activity", "setting": "[3]", "value": "65.2 % of wt-AQP2 activity"}
    ]},
    {"binder": "Aquaporin-2 V24A (untagged) (natural protein, human, UniProt P41181 1-271, looked up, Aquaporin-2 (AQP2), human, recessive NDI mutation V24A from reported clinical cases, made by site-directed mutagenesis in pT7Ts; also called rec-AQP2; source: Xenopus laevis oocytes, cRNA injected; total membranes solubilised in 2% deoxycholate) MWELRSIAFSRAVFAEFLATLLFAFFGLGSALNWPQALPSVLQIAMAFGLGIGTLVQALGHISGAHINPAVTVACLVGCHVSVLRAAFYVAAQLLGAVAGAALLHEITPADIRGDLAVNALSNSTTAGQAVTVELFLTLQLVLCIFASTDERRGENPGTPALSIGFSVALGHLLGIHYTGCSMNPARSLAPAVVTGKFDDHWVFWIGPLVGAILGSLLYNYVLFPPAKSLSERLAVLKGLEPDTDWEEREVRRRQSVELHSPQSLPRGTKA", "values": [
      {"measurement": "co-precipitated untagged band, densitometry in % of wt-AQP2 (rec/rec homomers)", "setting": "[6]", "value": "26 % of wt-AQP2"},
      {"measurement": "co-precipitated untagged band, densitometry in % of wt-AQP2 (wt/rec heteromers)", "setting": "[5]", "value": "75 % of wt-AQP2"},
      {"measurement": "gain of function in water permeability (Pf) of oocytes on coexpression with wt-AQP2 (specific activity with wt-AQP2 minus without), in % of wt-AQP2 activity", "setting": "[3]", "value": "63.9 % of wt-AQP2 activity"},
      {"measurement": "water permeability (Pf) of oocytes injected with 1 ng mRNA mixtures of wt/mut ratios 4/0 to 0/4, in % of pure wt-AQP2; the printed value is of the 2/2 ratio", "setting": "[3]", "value": "87 % of pure wt-AQP2"}
    ]}
  ]
}
